Measurements reported in patent EP0480381A1.

Assays:
[1] = target: rat endothelin receptor (rat); test: cell-based or functional assay
[2] = target: rat endothelin receptor (rat); test: displacement of [125I-Tyr13]endothelin-1 by unlabelled peptide on COS-7 cells transfected with prETR-7

Substance “endothelin-2 (from UniProt P20800 49-69) (peptide)” has an increase of calcium concentration in cytoplasm (fura-2), EC50 [1] of 20 pM and a binding affinity [2] of 2 nM.
